According to PMC3514788 (The Journal of Cell Biology, 2012):
Each block holds one molecule with its values, some of them ahead of it.

B1: GST-Nup116 fragment from the N terminus to residue 172 (domain or fragment)
chain: MFGVSRGAFPSATTQPFGSTGSTFGGQQQQQQPVANTSAFGLSQQTNTTQAPAFGNFGNQTSNSPFGMSGSTTANGTPFGQSQLTNNNASGSIFGGMGNNTALSAGSASVVPNSTAGTSIKPFTTFEEKDPTTGVINVFQSITCMPEYRNFSFEELRFQDYQAGRKFGTSQN
B2: Drg1 (enzyme)
chain: MAPKSSSSGSKKKSSASSNSADAKASKFKLPAEFITRPHPSKDHGKETCTAYIHPNVLSSLEINPGSFCTVGKIGENGILVIARAGDEEVHPVNVITLSTTIRSVGNLILGDRLELKKAQVQPPYATKVTVGSLQGYNILECMEEKVIQKLLDDSGVIMPGMIFQNLKTKAGDESIDVVITDASDDSLPDVSQLDLNMDDMYGGLDNLFYLSPPFIFRKGSTHITFSKETQANRKYNLPEPLSYAAVGGLDKEIESLKSAIEIPLHQPTLFSSFGVSPPRGILLHGPPGTGKTMLLRVVANTSNAHVLTINGPSIVSKYLGETEAALRDIFNEARKYQPSIIFIDEIDSIAPNRANDDSGEVESRVVATLLTLMDGMGAAGKVVVIAATNRPNSVDPALRRPGRFDQEVEIGIPDVDARFDILTKQFSRMSSDRHVLDSEAIKYIASKTHGYVGADLTALCRESVMKTIQRGLGTDANIDKFSLKVTLKDVESAMVDIRPSAMREIFLEMPKVYWSDIGGQEELKTKMKEMIQLPLEASETFARLGISAPKGVLLYGPPGCSKTLTAKALATESGINFLAVKGPEIFNKYVGESERAIREIFRKARSAAPSIIFFDEIDALSPDRDGSSTSAANHVLTSLLNEIDGVEELKGVVIVAATNRPDEIDAALLRPGRLDRHIYVGPPDVNARLEILKKCTKKFNTEESGVDLHELADRTEGYSGAEVVLLCQEAGLAAIMEDLDVAKVELRHFEKAFKGIARGITPEMLSYYEEFALRSGSSS

How the values were obtained:
[1] = molecular target: GST-Rlp24C (S. cerevisiae) (UniProt Q07915); experiment: SPR
Drg1 = molecular target: B2; experiment: pull-down
[2] = molecular target: the molecule itself

Sequence of GST-Rlp24C (S. cerevisiae) (Q07915 147-199): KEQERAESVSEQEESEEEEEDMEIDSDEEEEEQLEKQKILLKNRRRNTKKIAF

fold RU against the wild-type and EQ2 proteins [1]: 4 fold
kon2 (two-state reaction) [1]: 0.011 s⁻¹
Molecule: Drg1EQ1 (from UniProt P32794 1-780) (enzyme)

Molecule: B1
binding result (Drg1): binds

Molecule: B2
stoichiometry N [2]: 6
